Results on one molecule are retold here after publication PMC8869655, “Identification of the Kinase-Substrate Recognition Interface between MYPT1 and Rho-Kinase” (Biomolecules, 2022).

For experiment [1], the target named is T1, GST-Rho-kinase-cat-L (bovine, residues 6–553) (Bos taurus, UniProt Q28021).
T1 construct: GST-Rho-kinase-cat-L (bovine, residues 6–553); made in house; host or cells: Sf9 cells (baculovirus)
The experiment can be described thus: In vitro kinase assay, Rho-kinase-cat-L activity. Particulars: S6 rsk substrate peptide as substrate, 50 μM γ-[32P]ATP, 30 °C, inhibitor at the indicated concentrations, scintillation counting, N = 3. The experiment is classed as biochemical. The method, then:
(§1) The kinase reactions were performed in 50 μL of a reaction mixture (25 mM Tris-HCl, pH 7.5, 1 mM EDTA, 1 mM EGTA, 1 mM DTT, 5 mM MgCl2, and 50 μM γ-[^32P]ATP [1–20 GBq/mmol]), GST-Rho-kinase-cat-L or other kinases (1–10 nM), and substrates for 10–20 min at 30 °C. The reaction mixtures were applied to cation-exchange membranes and washed with 75 mM phosphoric acid three times, which was followed by scintillation counting.
Figure 4 Direct inhibition of Rho-kinase activity in vitro. (A) In vitro phosphorylation of S6 rsk substrate peptide by Rho-kinase. GST-Rho-kinase-cat-L or GST-ROCK1-cat-L activity was examined using the S6 rsk substrate peptide as a substrate in the presence of γ-[^32P]ATP. GST-MYPT1-684–868 aa-WT or -4A was added at the indicated concentrations. The reaction mixtures were applied onto cation-exchange membranes, followed by scintillation counting. N = 3. (B) Effects of the deletion of DMs on the inhibition of Rho-kinase activity in vitro. GST-Rho-kinase-cat-L activity was examined using the S6 rsk substrate peptide as a substrate in the presence of γ-[^32P]ATP. GST-MYPT1-684–868-4A with or without DMs was added at the indicated concentrations. The reaction mixtures were applied onto cation-exchange membranes, followed by scintillation counting. N = 3. The deletion of DM1 or DM2 moderately weakened the inhibitory effect and the deletion of both DM1 and DM2 completely abrogated the inhibitory effects of the MYPT1 fragment on the Rho-kinase activity. (C) Sequences of the DMs and phosphorylation sites of MYPT1. The sequences of MYPT1 683–715 aa and 836-860 aa and synthetic peptides are shown. Basic (blue), acidic (red), and aliphatic (green) amino acids within DMs are indicated. Phosphorylation sites are replaced by Ala in pseudosubstrate (PS) peptides. (D) Inhibition of Rho-kinase activity by PS2 + DM2 synthetic peptide. GST-Rho-kinase-cat-L activity was examined using the S6 rsk substrate peptide as a substrate in the presence of γ-[^32P]ATP. Synthetic peptides were added at the indicated concentrations. The reaction mixtures were applied onto cation-exchange membranes, followed by scintillation counting. N = 3. (E) Inhibition of Rho-kinase activity by PS1 + DM3 synthetic peptide. GST-Rho-kinase-cat-L activity was examined using the S6 rsk substrate peptide as a substrate in the presence of γ-[^32P]ATP. Synthetic peptides were added at the indicated concentrations. The reaction mixtures were applied onto cation-exchange membranes, followed by scintillation counting. N = 3.

The next experiment relates to GST-PKACα. The experiment can be described thus: In vitro kinase assay, PKA activity. It is filed as biochemical. The settings on record: S6 rsk substrate peptide (40 µM) as substrate, γ-[32P]ATP, N=3, Figure S3B. The method, then:
as §1
(§2) Supplem entary Figure S3. Inhibition of the kinase activity by the MYPT1-684-868 aa-4A […]
(§3) (A) In vitro phosphorylation of various substrates by Rho -kinase. S6 rsk substrate peptide (40 µM), GST-MYPT1 fragments (0.5 µM), GST-MLC (0.5 µM), or GST-Scrib-C (1235-1630 aa) (0.5 µM) was phosphorylated by GS T-Rho-kinase-cat-L with 1 µM GST or GST-MYPT1-684-868 aa-4A in the presence of γ-[32P]ATP. Data represent means ± SD. N=3. (B ) GS T-Rho-kinase-cat-L, GST-MRCKβ-cat-L, and GST-PKACα activities were examined using the S6 rsk substrate peptide (40 µM) as a substrate in the presence of γ-[32P]ATP and GST-MYPT1-684-868 aa-4A fragment at the indicated concentrations. The reaction mixtures were applied onto cation-exchange membranes, followed by scintillation counting. Data represent means ± SD. N=3.
(§4) (1 picture or pasted object on this page, not shown here)

Experiment [2] has as its system GST-MRCKβ-cat-L (human, residues 1–550). Put plainly: In vitro kinase assay, MRCKβ activity. The settings on record: S6 rsk substrate peptide (40 µM) as substrate, γ-[32P]ATP, N=3, Figure S3B. It is filed as biochemical. As to the method:
as §1, §2, §3, §4

In another experiment the test system is NIH3T3 cells. Put plainly: Actin stress fiber formation in NIH3T3 cells. The settings on record: GST-MYPT1 fragment expressed in NIH3T3 cells, 24 h, phalloidin staining, N = 4. The experiment is classed as cell-based. As to the method:
NIH3T3 cells were seeded on polylysine-coated 13-mm coverslips at a density of 4 × 10^4 cells/well in a 6-well dish and cultured in DMEM with 10% calf serum overnight. The cells were transfected with plasmid using LIPOFECTAMINE LTX reagent (Thermo Fisher Scientific, Waltham, MA, USA), according to the manufacture’s protocol. After 24 h, the cells were incubated in fresh DMEM containing 10% calf serum for 20 min, fixed with 3.7% formaldehyde in PBS for 10 min and then treated with PBS containing 0.2% Triton X-100 for 10 min. The fixed cells were blocked with 1% bovine serum albumin for 30 min and stained with the indicated antibodies. Cover slips were mounted with Fluoromount (Diagnostic Biosystems, Pleasanton, CA, USA) and the fluorescence was examined using a confocal laser scanning microscope LSM 780 and LSM5 PASCAL built around an Axio Observer Z1 or Axiovert 200M under the control of LSM software (Carl Zeiss, Oberkochen, Germany). Images were processed using ImageJ or Photoshop (Adobe, San Jose, CA, USA).
Figure 3 Inhibition of MYPT1 phosphorylation by the Rho-kinase-binding fragment of MYPT1. (A,B) Effect of the overexpression of Rho-kinase-binding MYPT1 fragments on GFP-MYPT1 phosphorylation in COS7 cells. Full-length GFP-MYPT1 and the GST-MYPT1 Rho-kinase binding fragment were transiently expressed in COS7 cells. The cell lysates were analyzed by immunoblot analysis using anti-MYPT1-pT855 (top panel), anti-GFP (middle), or anti-GST (bottom) antibodies. The phospho-GFP-MYPT1 levels were quantified and normalized by GFP-MYPT1 levels. Data represent means ± SD. **, p < 0.01, ***, p < 0.001 as compared with the control. (C) Effect of the overexpression of Rho-kinase-binding MYPT1 fragments on stress fiber formation in NIH3T3 cells. GST-MYPT1 fragments were expressed in NIH3T3 cells. The cells were fixed in formaldehyde, and immunostained with phalloidin and anti-GST antibody. […] The percentages of cells with stress fibers throughout the cell (SF(++)), cells with stress fibers partly in the cell (SF(+)), and cells without stress fibers (SF(–)) were analyzed. […]

The target in experiment [3] is T1, GST-Rho-kinase-cat-L (bovine, residues 6–553). The experiment can be described thus: In vitro kinase assay, Rho-kinase-cat-L activity. It is filed as biochemical. Particulars: 1 µM inhibitory fragment, Figure S3A, N=3.

T1 sequence (Q28021 6-553): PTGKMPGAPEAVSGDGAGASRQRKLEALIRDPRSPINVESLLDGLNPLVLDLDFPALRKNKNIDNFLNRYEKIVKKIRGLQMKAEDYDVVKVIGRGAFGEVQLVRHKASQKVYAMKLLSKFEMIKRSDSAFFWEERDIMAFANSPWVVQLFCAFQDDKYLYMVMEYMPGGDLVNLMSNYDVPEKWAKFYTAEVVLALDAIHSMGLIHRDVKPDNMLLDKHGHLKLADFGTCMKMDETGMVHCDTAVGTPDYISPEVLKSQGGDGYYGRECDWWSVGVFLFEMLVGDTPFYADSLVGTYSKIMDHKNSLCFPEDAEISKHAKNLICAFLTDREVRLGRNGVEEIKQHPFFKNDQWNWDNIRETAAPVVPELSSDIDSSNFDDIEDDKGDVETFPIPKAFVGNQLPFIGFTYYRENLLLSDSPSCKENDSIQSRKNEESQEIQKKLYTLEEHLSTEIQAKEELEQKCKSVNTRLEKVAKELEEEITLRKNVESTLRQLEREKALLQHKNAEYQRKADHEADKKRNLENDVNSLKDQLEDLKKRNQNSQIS

B1: MYPT1-684–868 aa-4A: GST-fused rat MYPT1 fragment 684–868 aa with the four phosphorylation sites replaced with Ala (protein)
chain: KARSRQARQSRRAAQGVTLTDLQEAEKTIGRSRSTRTREQENEEKDKEEKEKQDKEKQEEKKESEVSREDEYKQKYSRTYDETYARYRPVSTSSSSTPSSSSLSTLGSSLYASSQLNRPNSLVGITSAYSRGLTKDNEREGEKKEEEKEGEDKSQPKSIRERRRPREKRRAAGVSFWTQDSDENE
modifications: left off: GST, end not stated, kept
notes: GST-fused rat MYPT1 fragment 684–868 aa with the four phosphorylation sites replaced with Ala
Take B1: the “Inhibition of Rho-kinase-cat-L activity (in words)” value in experiment [1] was “inhibited the Rho-kinase-cat-L activity”. In addition, the “Inhibition of PKA activity (in words)” value in the experiment on GST-PKACα is listed as “did not inhibit”. Besides, the “Inhibition of MRCKβ activity (in words)” value in experiment [2] is recorded as “moderately inhibited”. In the experiment with NIH3T3 cells, the “Effect on actin stress fiber formation” value is “reduced actin stress fibers”. In addition, the “Inhibition of phosphorylation of MLC by Rho-kinase” value in experiment [3] (substrate GST-MLC (0.5 µM)) is recorded as “inhibited”. In experiment [3] (substrate GST-MYPT1 fragments (0.5 µM)), the “Inhibition of phosphorylation of MYPT1 by Rho-kinase” value is “much weaker”. Besides, the “Inhibition of phosphorylation of Scrib by Rho-kinase” value in experiment [3] (substrate GST-Scrib-C (1235-1630 aa) (0.5 µM)) is reported as “inhibited”.
